Laboratory results: publication PMC1669733

Experiments:
[1] = target: His-Rep 1–362 (full-length Rep protein of Mungbean yellow mosaic India virus) (Mungbean yellow mosaic India virus (MYMIV)); experiment: sucrose gradient centrifugation
[2] = target: His-Rep 120–362 (Mungbean yellow mosaic India virus (MYMIV)); experiment: sucrose gradient centrifugation

Substance | stoichiometry N [1] | stoichiometry N [2]
His-Rep 1–362 (full-length Rep protein of Mungbean yellow mosaic India virus) (enzyme) | 24 | 
His-Rep 120–362 (domain or fragment) |  | 24
